test: soluble on expression in E. coli; label from the status in PepcDB or PDB records

Q: With “NNNRAPKEPTDPVTLIFTDIESSTALWAAHPDLMPDAVAAHHRMVRSLIGRYKCYEVKTVGDSFMIASKSPFAAVQLAQELQLCFLHHDWGTNALDDSYREFEEQRAEGECEYTPPTAHMDPEVYSRLWNGLRVRVGIHTGLCDIRHDEVTKGYDYYGRTPNMAARTESVANGGQVLMTHAAYMSLSAEDRKQIDVTALGDVALRGVSDPVKMYQLNTVPSRNFAALRLDREYFD” as the sequence, how does the “soluble on expression in E. coli” value read?
A: Its value is “soluble”.

Q: With “NPYETFRIADELRRELVGDTVTYVVNRNINFTDICINDCKFCSFRNRKKYLLSLDEIKQKVEEAVEFGCTELCIQGGLLPDADLDFYLSILQAVRDVDKKIHIHAFSPMEVVHAARNSGMTVEEVLKELKKEGLGSMPGTAAEILDDSIRALICPRKLKTAEWVEVIKTAHRVGIPTTATIMYGHIDTWEHRINHLLLIKKIQQETGGITELIPLPFMSKNNELGRYAKGSSGFDDLLMIAIARILLYPEIKNIQASWVKMGQKLAQAALHVGANDLGGTLMEENISKSAGATSGEFMHPEELRELIKIAGRVPKQR” as the sequence, how does the “soluble on expression in E. coli” value read?
A: The value was “not soluble”.

Q: For “NQLSGLHSMEEQLAKKLQIKKCLVVQGDSDDTPWVREEMGRVAVEQLDMALTEKRNIVAVMGGSTMATVAEMMTTDFAKGRELLFVPGRGGIGEDLDNQANTICDKMATKTNTKHRVLYVPEQLGEEAYRSLLKEPAIQEGLRLVQSANAIILGIGDALAMAKRRHTGEDVLEKIIRRKAVGEAFGYYFDEQGEVVHKVPTFGLQFEDLAQIPHIIAVAGGTSKAKAIKSYMKSAPKNTILITDEGAAKSLLK”, which “soluble on expression in E. coli” value is on record?
A: The value was “soluble”.

Q: With “NSMAEFQYNLNLEEEKKQLEIENLCFENMKKQMEFTRRARHDLKHHMKAVHTMAENNECKKITEYIETYLEHVSLKKPLVYCTNFTLNALIVYYVQQAEAHKIKLKLNIELPEETNVKEADLTVLFGNLLENAIDACDEVQENKRYINLKIYKPNSDSIVFYIENGFNGSIKKKNQQFLTTKANGNGIGIESVKYVVHKYNGDVNIKTDENKFIVSGVLLQPLDATK” as the sequence, how does the “soluble on expression in E. coli” value read?
A: Its value is “not soluble”.

Q: With “NYGMVPFAGIPYYACPFGRDSIITSWFLLPYYPQYAEGTLKFFAKIQGKKFNPLNEEEPGKIPHEFRFGELSHSRKMPFAPYYGTVDATPLYVILAAEYLRWTGDRELIERLKPNLTAAVEWILRRLDEGGGYIRYKGGLLANQGWKDSKEGIPTEEGTPTKPPVALVEVQGYAYKALMDAASLGLTSLDPKMLKKEAEELKKRFNKDFWCDGFYALALDGDNVPSKVVSSNMGHLLFTGIAEHQEKIAERLFEEDMFSGWGIRTLSSKEKAYNPFSYHNGSIWPHDNAVIAIGLASIGEKEKARMLAEAIFKTAKFLPNSQLPELFSGLESEYPLLCPRANAPQAWSAASVFALLTALLGLKA” as the sequence, how does the “soluble on expression in E. coli” value read?
A: Its value is “not soluble”.

Q: Which “soluble on expression in E. coli” value does the source give for “NYKREIKQVENYLSARRESGHFIGKENIDIYYEKYVIPNSKNSIVISHGFRESMVKYNETIYYFLKNGYSVYGLEHRGHARSGRLGKDSTQTSVDNFDYYVDDFKKYVDTIVEPDNRGKNLFLYAHSMGGAIGGLFLERYPKYFKAAVLSSPMFEVDTGRYPEFLSRAVASVFNFVNLGDTYAPGHHEYSCESDFENSCTTSNIRYDYYLDKTNKSRKIENGGASFKWVKESLKATDEVTDGKNASKVTIPVLLFQAENDDIVRPGGQDKFAKEAKKCKLIVIKNSKHEIYREKDSIMVPYFNKVFTFLNNNK” here?
A: The value was “not soluble”.

Q: With “PASQTAANNLGGALNFSVENRTVKRIKFRYNVAKPITTEGLSKLSKGLGEAFLDNTTKAKLAELADPLNARYTGKKPDEVIQAQLDGLEELFADIPPPKDNDKQYKALRDLKRAAVEHRASANKHSVMDNARFETSKTNLSGLSSESILTKIMSSVRDASAPGNATRVAEFMRQDPKLRAMLKEMEGSIGTLARVRLEPKDSLVDKIDEGSLNGTMTQSDLSSMLEDRNEMRIKRLVVFHTATQAENFTSPTPLVSYNSGANVSVTKTLGRINFVYGADQDKPIGYTFDGELSRPSASLKEAAGDLKKEGFELKS” as the sequence, how does the “soluble on expression in E. coli” value read?
A: The value was “not soluble”.

Q: For “PAVLELEGKKWRVENQENVSNLVIEDTELKQVAYIYKCVNTTLQIKGKINSITVDNCKKLGLVFDDVVGIVEIINSKDVKVQVMGKVPTISINKTDGCHAYLSKNSLDCEIVSAKSSEMNVLIPTEGGDFNEFPVPEQFKTLWNGQKLVTTVTEIAG”, which “soluble on expression in E. coli” value is on record?
A: The value was “soluble”.

Q: For “PDDVSVLAANGEKAKLSGGFFASEKALTLPDGVNQVVFRYAPYFNQGNDRLSVESDVIVARFDTANAELTIEVPKYRNMRDAEENIKDLDWKLVDGSGKAVAVDQDKLIKPGMQIGRDYVREIEDYNR”, which “soluble on expression in E. coli” value is on record?
A: Its value is “not soluble”.

Q: For “PDIDGGILFLEDVGEQPYRIERMLNTLYLSGILKKQRAIVFGNFRMEKIRDVYDPSYDFSAVANHVSRTAKIPVLTGFPFGHIADKITFPLGAHARIRMNGNSGYSVAFEGYPTLDASALTLDTLLPPPDLPIFPESGVADISE”, which “soluble on expression in E. coli” value is on record?
A: The value was “not soluble”.

Q: For “PDITATPAWDALARHHDQIGNTHLRQFFADDPGRGRELTVSVGDLYIDYSKHRVTRETLALLIDLARTAHLEERRDQMFAGVHINTSEDRAVLHTALRLPRDAELVVDGQDVVTDVHAVLDAMGAFTDRLRSGEWTGATGKRISTVVNIGIGGSDLGPVMVYQALRHYADAGISARFVSNVDPADLIATLADLDPATTLFIVASKTFSTLETLTNATAARRWLTDALGDAAVSRHFVAVSTNKRLVDDFGINTDNMFGFWDWVGGRYSVDSAIGLSLMTVIGRDAFADFLAGFHIIDRHFATAPLESNAPVLLGLIGLWYSNFFGAQSRTVLPYSNDLSRFPAYLQQLTMESNGKSTRADGSPVSADTGEIFWGEPGTNGQHAFYQLLHQGTRLVPADFIGFAQPLDDLPTAEGTGSMHDLLMSNFFAQTQVLAFGKTAEEIAADGTPAHVVAHKVMPGNRPSTSILASRLTPSVLGQLIALYEHQVFTEGVVWGIDSFDQWGVELGKTQAKALLPVITGAGSPPPQSDSSTDGLVRRYRTERGRAGLE”, which “soluble on expression in E. coli” value is on record?
A: Its value is “soluble”.

Q: For “PDVRRDKPVTGEQIEVFANKLGEQWKILAPYLEMKDSEIRQIECDSEDMKMRAKQLLVAWQDQEGVHATPENLINALNKSGLSDLAESLTNDNETNS”, which “soluble on expression in E. coli” value is on record?
A: Its value is “soluble”.

Q: For “PFSWRHYIVLSRQDLEEYGEEIIAHEYAHIMHKHFRDLLLAEICLLFQWFNPAMWLFRKELKTVHEFEADESVLKAGIDAKKYQLLLI”, which “soluble on expression in E. coli” value is on record?
A: Its value is “not soluble”.

Q: With “PFTYSIEATRNLATTERCIQDIRNAPVRNRSTQFQLAQQNMLAYTFGEVIPGFASAGINGMDYRDVIGRPVENAVTEGTHFFRDDFRVDSNAKAKVAGDIFEIVSSAVMWNCAARWNSLMVGEGWRSQPRYSRPTLSPSPRRQVAVLNLPRSFDWVSLLVPESQEVIEEFRAGLRKDGLGLPTSTPDLAVVVLPEEFQNDEMWREEIAGLTRPNQILLSGAYQRLQGRVQPGEISLAVAFKRSLRSDRLYQPLYEANVMQLLLEGKLGAPKVEFEVHTLAPEGTNAFVTYEAASLYGLAEGRSAVHRAIRELYVPPTAADLARRFFAFLNERMELVNG” as the sequence, how does the “soluble on expression in E. coli” value read?
A: Its value is “soluble”.

Q: Which “soluble on expression in E. coli” value does the source give for “PGKGEGSPVGIAILGYGTVGSQVLRLLTENHNDFQHRAGGPLEIKGVAASSVEKHRGSLADQLGLLTDDARSLIARDDVDIVVEVIGGIDYPRELILEALHSGKSVVTANKALVAAHSEELAAAADEAGVDLYFEAAVAAAIPVLGPLRRSLAGDQIQSVAGIVNGTTNFILDAMDSTGASYDDMLAEATRLGYAEADPTADVEGHDAASKAAILASLAFHTRVTYADVYCEGISKITADDINAAKEAGFTIKLLAICERLNVDGVEKVSARVHPTLVPRNHPLASVDKSFNAIFVEAEAAGRLMFYGNGAGGNPTASAVLGDIVGAARNKVFGGRAPGESTYADLPIAPFGEVPTRFHIDMEVEDRVGVLADLAKTFSNHGISLRTVRQAEKDGHARLIVVTHTAKESELEATVEQIKNSDSVKKINSVIRLAG” here?
A: Its value is “soluble”.

Q: For “PITDERVYESIGHYGGETVKIVRIEKARDIPLGATVRNEMDSVIISRIVKGGAAEKSGLLHEGDEVLEINGIEIRGKDVNEVFDLLSDMHGTLTFVLIPS”, which “soluble on expression in E. coli” value is on record?
A: The value was “soluble”.

Q: For “PKGSIIVSTRAPVGYVAIVDEDTTFNQGCKGLIPKSSEINTEFYCYYLLLIKRKLEQLSGGSTFKELPKKSLEELLIPLLPLPEQQKIAEILSTV”, which “soluble on expression in E. coli” value is on record?
A: Its value is “soluble”.

Q: For “PLGSQTTHELTIPNNLIGCIIGRQGANINEIRQMSGAQIKIANPVEGSSGRQVTITGSAASISLAQYLINARLSSEKGMGCS”, which “soluble on expression in E. coli” value is on record?
A: Its value is “soluble”.

Q: Which “soluble on expression in E. coli” value does the source give for “PLNEVVRLHGSSGTSGKPTVVAYTQKDLEHWSSIIARSIYMAGGRKGDLLHNAYGYGLFTGGLGLHGGSEKLGCVTVPISGGNTQRQITLIQDFKPRVICGTPSYIMNIGETMKKMGIDPASTSIQYAILGSEPWSEEMRKNLETMFNMKAMDIYGLSEVIGPGVGMEC” here?
A: The value was “not soluble”.

Q: Which “soluble on expression in E. coli” value does the source give for “PMGDGTQVVFTTSLIPTEAIVQLDTKAPANSKQSPIFFISPIEGFASALEPLAKRLEVPAYGLQYTEAVPSDSLESAAKFFIKQLRTVQPKGPYKLAGYSFGCLLTYVMAGILEETNEVANVIMLDGAPSYVNWYTSSFKQRYTDGTNADNDNQSYGLAYFGIVLANIDYKALVRLLIVIPTWEEKLERFAELMSNEITQPVETIKKSATLFYKKLELADGYQPTLKLKTNVTLVKPTDNSAKLDEDYRLKEVCTKPVEVHTVEGNHRTFLIEDQSLKTIQSILKRL” here?
A: The value was “soluble”.

Q: For “PNKFCPGCGHGIVNRIIAEVIEEHGYEKNHVLTLGVGCVCNMNFSWNGDKMQTAHGRASSTAIGVKVALPDTLVMTYQGDGDAYVIGLSETLNTAYRNHNVTVFVINNNNFAMTGGQMSWTTMPGQVTTTSVNGRDIKTTGSPLKVPEMVANFFDVAYVARGSVHSPKEIINLKKYIKNAIEAQLNGEGYSLVEILAPCPTNWGVSLEKSIKWMEEEIVPYYALGEFKQRDG”, which “soluble on expression in E. coli” value is on record?
A: The value was “not soluble”.

Q: For “PNRLAEAGSRYLRQHSCDPVDWMPWGAEAFEKARRLDKPVFVSVGYSSCHWCHVMQRESFSDPMVAEVLNRAFVMVKVDREERPDVDTLLMRYCAIASGSCGWPLNVLLTPDGKPFYVATYLPKESLVALAVSLERVWRERRAEVLEVAERAGGLLEQHRLAFTPGR”, which “soluble on expression in E. coli” value is on record?
A: The value was “not soluble”.

Q: For “PPIHPLTRAKLPDPYLMPVVSWNQSPQPPTTKEDALAKNPNREPIRCVDYHPFGVIGGRDILYGIVWGTRTA”, which “soluble on expression in E. coli” value is on record?
A: Its value is “not soluble”.

Q: Which “soluble on expression in E. coli” value does the source give for “PQSAVLHYSGSYGIPATMTFERSGNAYKIVSTIKVPLYNIRFESGGTVVGNTLHPTYYRDIRRGKLYAEAKFADGSVTYGKAGESKTEQSPKAMDLFTLAWQLAANDAKLPPGLKITNGKKLYSVGGLNKAGTGKYSIGGVETEVVKYRVRRGDDAV” here?
A: Its value is “not soluble”.

Q: With “PQTLYQKLVETHTVARLDSQNVLLYADLHIMNEYTSPQAFAGLAEAGRTVLQPGQNVSVVDHIIPTHPVAIRIIEEPNSALQASNLKKNCERHGIPLFDANNRFQGIEHVIAPELGMIRPGMVVLCGDSHTTTYGALGALGFGIGTSEVEHVLATQTLVYRLAPT” as the sequence, how does the “soluble on expression in E. coli” value read?
A: Its value is “not soluble”.

Q: For “PREQIIRLHASSGTTGKPTVVGYTANDISNWADLVARSLRAAGLRKGDMIHNAYGYGLFTGGLGAHYGIERLGATVVPMSGGQTEKQVGLITDFKPTGIMVTPSYMLNILEQYHKVGMDPRESSLQVGVFGAEPWTDAMRREVEEAFDMHAVDIYGLSEIMGPGVANECVETKDGPVI”, which “soluble on expression in E. coli” value is on record?
A: Its value is “not soluble”.
